Results: patent publication US20240132604A1

Biological target: CHO-hCCR8 (human) (UniProt P51685)
Experiment: FACS binding, CHO-K1 cells overexpressing human CCR8

Sequence of UniProt P51685 (P51685 whole entry): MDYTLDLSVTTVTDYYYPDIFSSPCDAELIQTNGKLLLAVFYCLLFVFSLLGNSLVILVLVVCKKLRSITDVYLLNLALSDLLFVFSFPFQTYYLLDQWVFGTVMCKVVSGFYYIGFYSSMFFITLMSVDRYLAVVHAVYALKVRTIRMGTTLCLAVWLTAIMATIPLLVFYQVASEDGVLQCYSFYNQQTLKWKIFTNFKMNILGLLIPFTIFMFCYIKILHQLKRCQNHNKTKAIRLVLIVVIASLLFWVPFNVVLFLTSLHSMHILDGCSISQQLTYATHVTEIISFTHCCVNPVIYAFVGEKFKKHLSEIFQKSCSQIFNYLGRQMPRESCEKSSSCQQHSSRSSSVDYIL

EC50: 0.658 nM
Substance: GS-1811
